The record followed here is paper PMC7013354.

Test [1] concerns the target truncated E2 protein of CSFV C-strain with glutathione S-transferase tag (grE2) (classical swine fever virus, C-strain). Briefly: SPR. On the technique in general: In SPR one partner is held on a chip, and binding of the other changes the refractive index at the surface.
The target is the same in test [2]. As to the kind of experiment: ELISA. (ELISA stands for enzyme-linked immunosorbent assay.)

B1: recombinant sdAbE2-1 (VHH)
VHH: QVQLLESGGGLVQPGGSLRLSCAASGYSFIDKTMAWVRQAPGKGLEWVSAIRMHNGSTYYADSVKGRFTISRDNSKNTLYLQMNSLRAEDTAVYYCARLSRRIQAKDKAKLKYWGQGTLVTVSS
One may read the Kd as the constant that tells how readily two partners part at equilibrium. The low end stands for higher affinity, the high end for lower affinity. For orientation: koff means the first-order rate constant of dissociation. The term kon denotes the second-order rate constant of association. High values mean fast association, low ones slow association. With B1, in test [1], the equilibrium dissociation constant (Kd) amounted to 334 nM, the koff came to 0.00791 s⁻¹ and the kon amounted to 23700 M⁻¹ s⁻¹. The molecule further registered an OD450nm value in test [2] of 0.765.

B2: recombinant sdAbE2-2 (VHH)
VHH: DVQLVESGGGLVQAGGSLRLSCTASGFTFDDYAMAWFRQPPGKEREGVSCISSSGGSTWYADSVKGRFTVSRDNAKNTLYLQMNSLKPEDTAMYYCAADWGRLCVVRGPRNEYKYSGQGTQVTVSS
In test [1], B2 displayed an equilibrium dissociation constant (Kd) of 13.5 nM, a koff of 0.00859 s⁻¹ and a kon of 635000 M⁻¹ s⁻¹. In test [2], the OD450nm value worked out at 0.743.
